From paper PMC3481213 come the findings set out here.

Broadly, the stoichiometry N is a count of units in the complex or per binding partner. One may read the Km as the concentration of substrate that gives half-maximal velocity. As a reminder, the Vmax is the rate approached at saturating substrate. As usually defined, the kcat is the maximal rate divided by the concentration of active sites. Usually kcat/Km stands for the second-order rate constant that governs catalysis at low substrate concentration.

For series [1], the target named is Brachypodium distachyon cinnamyl alcohol dehydrogenase 5 (BdCAD5), recombinant 6xHis-tagged (Brachypodium distachyon). The series is described as follows: SEC. For orientation: SEC sorts molecules by how far they enter the pores of the column.
Substrate in series [2]: COc1cc(/C=C/CO)ccc1O
The series is described as follows: purified protein. As to conditions: co-substrate NADP+, 100 mM TRIS-HCl pH 8.8, 23 °C, n = 1.

Substrate in series [3]: COc1cc(/C=C/C=O)ccc1O
The series is described as follows: purified protein. As to conditions: co-substrate NADPH.

Where [4] appears, read: 100 mM sodium acetate pH 5.35, 23 °C.
Setting [5] is: 200 mM potassium phosphate pH 6.25, 23 °C.

With “Brachypodium distachyon cinnamyl alcohol dehydrogenase 5 (BdCAD5), recombinant 6xHis-tagged (enzyme)”, in series [1], the percent of peak area at the dimer position turned out to be 24% and the stoichiometry N was 2.

B1: BdCAD3 (Brachypodium distachyon) (protein)
chain: MEQGKAALGWAARDASGHLSPYNFSRRVQKDDDVTIKVLFCGICHTDLHIIKNEWGNALYPIVPGHEVVGVVTDVGPGVKNFKAGETVGVGYFLDSCRTCDSCSKGHENYCPTLVLTSNGVDYDGATTQGGFSDVVVVNQDYVVRVPDTLPPDGAAPLLCAGVTVYSPMMQYGLNAPGKHLGVVGLGGLGHMAVKFGKAFGMKVTVISSSLRKREEALDRLGADDFLVSSDAEQMKAAAGAMDGIIDTVSAGHPIVPLLELLRPMGQMVVCGAPSEPLQLPAYAVITGGKRIAGNGVGSVRDCQAMLDFAGEHGITADVEVVKMDYVNTAVERLERNDVRYRFVIDVAGSLQQGGAA
For the molecule B1, in “purified protein [2]”, the Km was 509.1 ± 134.0 µM, the Vmax was determined as 36.7 µmol/min/mg, the kcat is 34.3 s⁻¹ and the kcat/Km came to 67000 M⁻¹ s⁻¹. For the same molecule, in “purified protein [3]” (setting [4]), the Km turned out to be 33.3 ± 3.80 µM, the Vmax was determined as 9.26 µmol/min/mg, the kcat came to 8.66 s⁻¹ and the kcat/Km came to 260000 M⁻¹ s⁻¹.

B2: BdCAD5 (Brachypodium distachyon) (protein)
chain: MGSIASEERTVTGWAARDADGHLSPYTYTLRKTGPEDVLVKVLYCGICHTDIHQAKNHLGASKYPMVPGHEVVGEVVEVGGEVSKYSAGDVVGVGVIVGCCRECRPCKASVEQYCNKRIWSYNDVYTDGRPTQGGFSSAMVVDQKFVVRIPAGLAPEQAAPLLCAGVTVYSPLKHFGLMSPGLRGGILGLGGVGHMGVKVAKSMGHHVTVISSSGKKRAEAMDDLGADAYLVSSDADQMAAAADSLDYVIDTVPVKHPLEPYLSLLKMDGKLVLMGVIGEPLSFVSPMVMLGRKSITGSFIGSMEETEEVLKFCVEKGLTSQIEVVKMDYLNEALERLERNDVRYRFVVDVAGSKIEDAA
Turning to B2, in the series “purified protein [2]”, the Km amounted to 1.44 ± 0.24 µM, the Vmax came to 7.91 µmol/min/mg, the kcat was 10.3 s⁻¹ and the kcat/Km amounted to 7.19e+06 M⁻¹ s⁻¹. In the series “purified protein [3]” (setting [5]), the Km worked out at 3.1 ± 0.44 µM, the Vmax was determined as 29.5 µmol/min/mg, the kcat turned out to be 38.6 s⁻¹ and the kcat/Km stood at 1.29e+07 M⁻¹ s⁻¹.
